Laboratory results taken from publication PMC12417186.

Assays:
[1] = target: C3b purified from plasma of donor D1 by the novel direct method (human) (UniProt P01024); assay: SPR; on-chip convertase assay: 600 nM FB and 100 nM FD injected 3 min over biotinylated C3b on SA chip, 10 min dissociation; 25°C; PBS, 0.05% Tween20, 1 mM MgCl2; exponential decay fit of 200-780 s; mean of three curves; 'estimated'
[2] = target: C3b purified from plasma of donor D3 by the novel direct method (human) (UniProt P01024); assay: as above
[3] = target: C3b (commercial), Complement Technology (human) (UniProt P01024); assay: as above
[4] = target: C3b purified from plasma of donor D2 by the novel direct method (human) (UniProt P01024); assay: as above
[5] = target: C3b purified from plasma of donor D1 by the novel direct method (human) (UniProt P01024); assay: SPR; C3b biotinylated at the thioester sulfhydryl, immobilised on SA sensor chip (950-1050 RU); analytes injected 2 min at 30 µl/min; 25°C; PBS, 0.05% Tween20, 1 mM MgCl2; 1:1 steady-state model; Biacore X100
[6] = target: C3b purified from plasma of donor D3 by the novel direct method (human) (UniProt P01024); assay: as above
[7] = target: C3b (commercial), Complement Technology (human) (UniProt P01024); assay: as above
[8] = target: C3b purified from plasma of donor D2 by the novel direct method (human) (UniProt P01024); assay: as above

Row | Substance | koff [1] [s⁻¹] | koff [2] [s⁻¹] | koff [3] [s⁻¹] | koff [4] [s⁻¹] | Kd [5] [nM] | Kd [6] [nM] | Kd [7] [nM] | Kd [8] [nM]
1 | Bb fragment of Factor B in the alternative pathway convertase C3bBb (from UniProt P00751 260-764) (domain or fragment) | 0.002 | 0.0019 | 0.0019 | 0.002 |  |  |  | 
2 | complement Factor H CCPs 19-20 (domain or fragment) |  |  |  |  | 10500 | 10600 | 9300 | 10400
3 | complement receptor 1 (CR1) complement control protein (CCP) domains 15-17 (domain or fragment) |  |  |  |  | 485 | 438 | 476 | 650
4 | variable domain of the complement receptor of the immunoglobulin superfamily (domain or fragment) |  |  |  |  | 860 | 795 | 754 | 944
